Biological target: T1, GST-His-hnRNP L RRM2 (162–321) (human, UniProt P14866 162-321)
T1 construct: bait of the GST pull-down; source: E. coli Rosetta 2 (DE3) pLysS, purified (glutathione magnetic beads)
T1 sequence (looked up): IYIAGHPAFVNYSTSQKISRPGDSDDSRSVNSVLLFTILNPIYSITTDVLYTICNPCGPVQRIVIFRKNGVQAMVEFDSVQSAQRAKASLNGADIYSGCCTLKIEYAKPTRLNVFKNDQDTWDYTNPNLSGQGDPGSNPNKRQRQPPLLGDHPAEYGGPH
Test: pull-down; GST pull-down with recombinant proteins purified from bacteria; GST-His-hnRNP L segments as baits, FLAG-SETD2 fragments as preys; RNase included in the binding assay; western blot with anti-His and anti-FLAG
Details: both partners purified

B1: FLAG-SETD2 SHI (2114–2263) (domain or fragment, human, UniProt Q9BYW2 2114-2263, looked up)
chain: NKLSTEERRKLFEQEVAQREAQKQQQQMQNLGMTSPLPYDSLGYNAPHHPFAGYPPGYPMQAYVDPSNPNAGKVLLPTPSMDPVCSPAPYDHAQPLVGHSTEPLSAPPPVPVVPHVAAPVEVSSSQYVAQSDGVVHQDSSVAVLPVPAPG
notes: The methods say that proteins were eluted with either glutathione or AcTEV protease; source: E. coli Rosetta 2 (DE3) pLysS, purified (glutathione magnetic beads)
binding result: binds

— paper PMC7933334, “The methyltransferase SETD2 couples transcription and splicing by engaging mRNA processing factors through its SHI domain” (Nature Communications, 2021)
